The values that follow come from PMC3989768, “Activation of the γ-Tubulin Complex by the Mto1/2 Complex” (Current Biology, 2014).

This data set deals with the molecule itself. The data set can be described thus: glycerol density-gradient centrifugation; material partially purified by Mto2-SZZ (IgG beads, TEV cleavage) from mto1[9A1-bonsai]-GFP or mto1Δ lysates, before and after 10-fold concentration; isokinetic glycerol gradient, 2.5 hr or 45 min; quantitative western blotting. Background: In western blotting, separated proteins are transferred to a membrane and probed.

B1: Mto2-S (the TEV protease cleavage product of Mto2-SZZ) (natural protein, Schizosaccharomyces pombe, UniProt Q9USP7 1-397, looked up)
chain: MSEHNYQSDREVAEDPFLNYEASANQLSSNSRESTPRGSPWRAGMRSASLMTEPLEDSMYSDNNYLDNGVSFTKDENPLYSPSWPSLADANVNSMKSNNAIQEHKAAKFVSEKSLEKVSTADNNLVLQELENLRERLNQVELQLSERPSSYLGYHNNLSPYRSPNSYPSLLPSTHSPHSPAPLSTMQTALMRLRTYHPSPIILKPVEQAVNHAITLVNTSPSSVVDALCRSLAELCLGLVQEAIDASILSQQESSNSLDLVRHTPPLNYTSSVDSSPQRMASDSYGRPSLHLNDPFPSVDLQSNELSHHNVRTTLFSDDSRFHSKIHTHSTPPSQMYSAASHFRYRSDPSTRHVSNSTNKSSLHPSPTSLRVAHPIIPQRASPASQSFPSLQDTPSP
notes: Mto2, Schizosaccharomyces pombe; source: S. pombe, partially purified (immunoglobulin G beads, TEV protease cleavage), enriched 3,400-fold
Take B1: the binding result is given as “binds”.
